Assays:
[1] = biological target: T1, recombinant human PD-1-Fc (human, UniProt Q15116 25-167); experiment: competition ELISA; blocking PD-1/PD-L1
[2] = biological target: T1, recombinant human PD-1-Fc; experiment: competition ELISA; blocking PD-1/PD-L2
[3] = biological target: recombinant human PD-1 (product No. 10377-H08H, Beijing Yiqiao Shenzhou) (human, UniProt Q15116 25-167); experiment: ELISA
recombinant human PD-1 (product No. 10377-H08H, Beijing Yiqiao Shenzhou), sequence (Q15116 25-167): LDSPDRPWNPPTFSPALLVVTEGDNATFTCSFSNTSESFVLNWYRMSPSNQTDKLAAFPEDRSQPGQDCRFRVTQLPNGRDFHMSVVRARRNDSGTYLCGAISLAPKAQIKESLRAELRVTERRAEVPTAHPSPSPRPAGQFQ

T1 sequence (Q15116 25-167): as above

B1: PD-1 monoclonal antibody (antibody, V domains shown)
VH: QVQLVQSGAEVKKPGSSVKVSCKASGGTFSSTAISWVRQAPGQGLEWMGGIWPSFGTASYAQKFQGRVTITADESTSTAYMELSSLRSEDTAVYYCARAEYSSTGIFDYWGQGTLVTVSS
VL: DIQMTQSPSSVSASVGDRVTITCRASQGISSWLAWYQQKPGKAPKLLISAASSLQSGVPSRFSGSGSGTDFTLTISSLQPEDFATYYCQQANHLPFTFGGGTKVEIK
[1]
  IC50: 2.71 nM
[2]
  IC50: 2.89 nM
[3]
  EC50: 0.18 nM

Reference: patent US20210032343A1 (published 2021)
